B1: PSMA-Heptamer: AF-Sm1 heptamerization domain fused with the 12 amino-acid PSMA-binding peptide WQPDTAHHWATL, self-assembled heptamer (protein)
chain: MWQPDTAHHWATLGPQPQPKPQPKPEPEPQPQGGMPPRPLDVLNRSLKSPVIVRLKGGREFRGTLDGYDIHMNLVLLDAEEIQNGEVVRKVGSVVIRGDTVVFVSPAPGGEHHHHHH
B2: PSMA monomer: PSMA-binding peptide WQPDTAHHWATL on a truncated, nonfunctional Sm1 domain lacking the C-terminal 23 residues (protein)
chain: MWQPDTAHHWATLGPQPQPKPQPKPEPEPQPQGGMPPRPLDVLNRSLKSPVIVRLKGGREFRGTLDGYDIHMNLVLLDAEEIQNGEVVHHHHHH

Biological target: T1, PSMA (Homo sapiens, UniProt Q04609)
T1 construct: the extracellular domains of EGFR, HER2, and PSMA that are immobilized on the surface of CM5 biosensor chips; purchased R&D System, Minneapolis, Minn
T1 sequence (Q04609 44-750 limits assumed): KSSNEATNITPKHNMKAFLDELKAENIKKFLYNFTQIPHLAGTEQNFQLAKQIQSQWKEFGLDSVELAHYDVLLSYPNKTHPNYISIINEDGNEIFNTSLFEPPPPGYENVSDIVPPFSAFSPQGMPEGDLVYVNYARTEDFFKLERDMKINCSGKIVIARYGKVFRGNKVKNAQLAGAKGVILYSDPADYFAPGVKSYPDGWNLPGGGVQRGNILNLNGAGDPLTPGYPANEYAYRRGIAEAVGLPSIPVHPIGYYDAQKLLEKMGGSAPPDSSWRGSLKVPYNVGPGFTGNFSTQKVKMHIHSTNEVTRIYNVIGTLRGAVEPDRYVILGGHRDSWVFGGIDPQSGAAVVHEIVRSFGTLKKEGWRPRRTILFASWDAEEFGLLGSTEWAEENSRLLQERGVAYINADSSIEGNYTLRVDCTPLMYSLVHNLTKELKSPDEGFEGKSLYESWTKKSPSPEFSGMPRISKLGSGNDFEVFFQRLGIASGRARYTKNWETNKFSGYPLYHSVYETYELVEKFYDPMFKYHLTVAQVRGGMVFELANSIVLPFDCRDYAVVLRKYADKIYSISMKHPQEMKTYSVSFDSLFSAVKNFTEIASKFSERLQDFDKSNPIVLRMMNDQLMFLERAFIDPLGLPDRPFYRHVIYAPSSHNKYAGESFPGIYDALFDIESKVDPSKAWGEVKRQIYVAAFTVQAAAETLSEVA
Assay: BIAcore surface plasmon resonance on immobilized PSMA
Format: binding
Conditions: for binding to the PSMA receptor: PSMA monomer injected at 100 uM
Protocol: BIAcore 2000 (BIAcore AB, Uppsala, Sweden) was used for surface plasmon resonance (SPR) analysis. Purified extracellular domain of recombinant human EGFR ECD-Fc, HER2 ECD-Fc, and PSMA were diluted in 10 mM sodium acetate pH 5.0 and immobilized on a CM5 sensor chip (GE healthcare) by amine coupling according to the manufacturer's instruction (about 2,500 resonance unit). Various concentrations of monomeric and heptameric targeting ligands were injected onto the flow cell in an HBS-P buffer (10 mM HEPES pH7.4, 150 mM NaCl, and 0.005% surfactant P20) at a flow rate of 20 μl/min or 30 μl/min. The dissociation constants (Kd) were calculated using BIAevaluation software (BIAcore) by fitting data on one to one Langmuir binding model.
The BIAcore 2000 (BIAcore AB, Uppsala, Sweden) was used for surface plasmon resonance analysis. 1 μg of purified extracellular domain of recombinant human EGFR ECD-Fc, HER2 ECD-Fc, or PSMA (R&D System, Minneapolis, Minn.), was diluted in a buffer containing 10 mM sodium acetate pH 5.0 and immobilized on a CM5 sensor chip (GE healthcare, Piscataway, N.J.) by amine coupling according to the manufacturer's instruction (about 2,500 resonance units). Various concentrations of monomeric or heptameric ligands were injected onto the flow cell in an HBS-P buffer (10 mM HEPES pH 7.4, 150 mM NaCl, and 0.005% surfactant P20) at a flow rate of 20 μl/min. The dissociation equilibrium constant (KD), the association rate (Ka) and the dissociation rate (Kd) were calculated using the BIAevaluation software (BIAcore) by fitting the data on a one to one Langmuir binding model.

Row | Molecule | binding to the PSMA receptor | Kd (dissociation rate, one to one Langmuir model)
1 | B1 | bind marginally | 1.09e-06 s⁻¹
2 | B2 | did not bind | –

Source: US9340616B2, “Methods and compositions for heptameric targeting ligands” (The University of North Carolina at Chapel Hill, priority 2011, dated 2016)
